The text below walks through data of article PMC7990337, “Architecture and mechanism of metazoan retromer:SNX3 tubular coat assembly” (Science Advances, 2021).

In this assay the target is zebrafish VPS26 (zebrafish, UniProt Q6TNP8 1-327). In words: cryo-EM structure; cryo-electron tomography with subtomogram averaging of coats reconstituted on PI(3)P- and DGS-Ni-NTA-containing liposomes: 2.5 uM core trimer, 3.5x molar excess of adaptor (SNX3 or Grd19) and the corresponding His-tagged cargo peptide (Wls or Kex2), liposomes 0.16 mg/ml, 4 hours at 22°C in buffer A (20 mM Hepes-KOH pH 7.5, 200 mM NaCl, 1 mM TCEP). To be noted: both partners purified.

B1: His6Wls (peptide, UniProt Q6DID7 493-541, looked up)
chain: APSHKNYGEDQSNGDLGVHSGEELQLTTTITHVDGPTEIYKLTRKEAQE
notes: Wntless (Wls), residues 493 to 541 (C-terminal domain), UniProt Q6DID7; Cloned in pRSFDuet-1; attached to the liposome membrane (liposomes contain DGS-Ni-NTA); also called Wntless cargo peptide; Wls cargo tail peptide; source: E. coli BL21(DE3), purified (Ni-NTA, Superdex Peptide 10/300)
In the case of B1, the binding result is “binds”.
